Results published in the DeepSol protein solubility set.

Assay: soluble on expression in E. coli; label from the status in PepcDB or PDB records
In the case of “MGSDKIHHHHHHMKISFPHMGYSYIAFKWLVNHLGHECIVPPEPSKKTLDLGVRYSPEFACIPFKILMGTYLEVAEKGAEIILTSGGMGPCRAGYYWVMHQYILDEIGKKVKVIAFEPPLCDLRDFWRKLHRLRVSGGLSVKAFIQVLKVAWEKIKAIDDMEMQSHSIRPYEEKRGDTTRALWKALEFVDEANGEDEVNEARQEGLKVLQGVRRDENRDPLKIGIIGEIYVVLEPSANHYLQIMLGEMGVYTDRSIYLSSYTRKNTIVNLEGDIFQVARPYLNEAPIGGHGVNSIGETILYARHGFDGVVQLAPFACIPEIVAKSIIPAVSRDFNIPVLTLFIDEQTGKAGVQTRLEAFVDLLEKRREHKRQRERWAI”, the “soluble on expression in E. coli” value was “not soluble”. With “MEELTIWEQHTATLYKDPRRGFGIAVSGGHDRASGSVVVSDVVPGGPAEGRLRTGDHIVMVNGVSVENVTSAFAIQILKTCTKTANVTVKRPRRVQLPATKASPASGHQLSDQEEADHGRGYEGDSSSGSGRSWGERSRRSRAGRRGRVGSHGRRSSGGGSEANGLDLVSGYKRLPKQDVLMRPLKSVLVKRRNSEEFGVKLGSQIFIKHITESGLAARNHGLQEGDLILQINGVSSANLSLSDTRRLIEKSEGELTLLVLRDSGQFLVNIPPAVSDSDSSLMEDISDLTSELSQAPPSHVPPPPLKGQRSPEDSQTDSPVETPQPRRRERSVNSRAIAEPESPGESRYDIYRVPSRQSLEDRGYSPDTRVVSFPKGASIGLRLAGGNDVGIFVSGVQAGSPADGQGIQEGDEILQVNGMPFRNLTREEAVQFLLGLPPGEDMELVTQSKQDIFKKMVQSRVGDSFYIRTHFELEPSPPYGLGFTRGDVFHVVDTLYPGSGPGHGHSSHGGLWLAARMGRDLREQERGVIPNQSRAEQLASLEAAQRAAGVGPGASVGSNPRAEFWRLRGLRRGTKKASTQRSREDLSALTRQGHYPPYERVVLREASFKRPVVILGPVADIAMKKLTTEMPEEFEIAESMSRTDSPSKIIKLDTVRVIAERDKHALLDVTPSAIERLNYVQYYPIVIFCAPESRPALKALREWLAPASRRSSRRLYAQAQKLQKHSGHLFTATIPLHGTSDSWYQEVKAVIQQQQARPIWTAEDQLNSSSEDLDLPGHGLAASSGDLSCDSRTNSDYEDTDGEGAYTDREGGPQDVDEEVAPTALARSSEPVWVDDHQGLMGHGTTITDKWETQADSHYTQDQRRQDSMRTYKHEALRKKFTRARDVESSDDEGYDWGPATDL” the “soluble on expression in E. coli” value was “soluble”. With “MKKLAVKALLFIMGTMLYSAPTYEYRRELREGARGKWTNLRQHLNSGTRLEKELTKVDKQIDKKVNEIQEIEDLLFRIEQYKAANNIR” the “soluble on expression in E. coli” value was “not soluble”. With “MIYEIKFAHGESNVFAISDIELAPQTEVILRSDKGNFYGKIVREISEEANLEIHHTIVREVNEDDLQVIAKLEERSKQAKDKVRQLVIEQGLEMKIIDVAYNFDQMQLFISFTAENRVDFRLLLRELATTFRIRIELRQIGPRDAAKIHGGLGPCGRPLCCSEFVYEFPNVSIKMAKNQNLSLKQNKLNGLCGRLMCCLTYEDSFYKEAQQLFPDFGEFVTTSEGKGKVVGLNVLKNRVKIRFGEYSKDFELAEIEVNHGLEHHHHHH” the “soluble on expression in E. coli” value was “soluble”. In the case of “MGSDKIHHHHHHMEYQTRQWLEEALFDLLATKKSLHNISIAELSEHAQIARRTFYRYYHSKEQVLTNYLDRLIQDYIIELQTEKLTNFEDLVNLFFQYWSQYTESLKILQEANLLVLILQRYYDKLPAAYTTVMAPWHITNSDQRQISYDSRFIIGGLYSIFDEWLKTDHQTMPVNELVTTALNTIKRMKDS”, the “soluble on expression in E. coli” value was “not soluble”. For “MGSDKIHHHHHHMTPLPSFRLSWPSALQRLCHAPAGKHMPAGAYQVHFPRLELVLSNRYHYSHEGCENASLSAQEALFIPAEHWTLPNWCANGEVLHILFDYARIGFSLVRSGPQGVISTHKESMVLAQRGSLNGMLDVLAGLCRDGADPEVLRLQGQALLALLQSLYDEARDSQWQQGGNLFRAICLYISEHLYAPLTREDVALRFSISATHLSRLFRQHLGLGFCEFLSHARLDLAKALLRQGQLPLSRVAARCGYADVNYFHRVFKQRFAMTPCAYRREFA”, the “soluble on expression in E. coli” value was “not soluble”. For “MVNSSKSILIHAQNKNGTHEEEQYLFAVNNTKAEYPRDKTIHQLFEEQVSKRPNNVAIVCENEQLTYHELNVKANQLARIFIEKGIGKDTLVGIMMEKSIDLFIGILAVLKAGGAYVPIDIEYPKERIQYILDDSQARMLLTQKHLVHLIHNIQFNGQVEIFEEDTIKIREGTNLHVPSKSTDLAYVIYTSGTTGNPKGTMLEHKGISNLKVFFENSLNVTEKDRIGQFASISFDASVWEMFMALLTGASLYIILKDTINDFVKFEQYINQKEITVITLPPTYVVHLDPERILSIQTLITAGSATSPSLVNKWKEKVTYINAYGPTETTICATTWVATKETIGHSVPIGAPIQNTQIYIVDENLQLKSVGEAGELCIGGEGLARGYWKRPELTSQKFVDNPFVPGEKLYKTGDQARWLSDGNIEYLGRIDNQVKIRGHRVELEEVESILLKHMYISETAVSVHKDHQEQPYLCAYFVSEKHIPLEQLRQFSSEELPTYMIPSYFIQLDKMPLTSNGKIDRKQLPEPDLTFGMRVDYEAPRNEIEETLVTIWQDVLGSHHHHHH”, the “soluble on expression in E. coli” value was “soluble”. For “MGSDKIHHHHHHMKNLFLFCRAGFEKECAAEIQQRAGELNVGGFVKANNNDAYVVYQCFEEDAADTLVKQLPLDSLIFARQMFAASDLLVDLPESDRISPIVAALSDVSKAGEVRVETPDTNEAKELSAFCRKFTVPLRQHLKKSGSLLAQENPKRPIIHVCFIGPGRAYVGYSYSNNSSPHFMGIPRLKMAADAPSRSSLKLDEAFGQFVPKEEQEERIRSGMNAVDLGACPGGWTYQLVRRGMFVSAVDNGPMDEKLMETGQVKHYREDGFRFEPQRKNIYWLVCDMVRPSSL”, the “soluble on expression in E. coli” value was “not soluble”. With “MGSDKIHHHHHHMTRNGIGIRTAQVRSERLTGQIHVYDGVGKGKSQAALGVVLRSIGLGINAPNNSNRVLLLRFLKGPERDYDEDGAIAALQRGFPHLIDQVRTGRAEFFGPEEITTFDRSEAGRGWDVAKGAIASGLYSVVVLDEINPVLDLGLLSVDEVVGTLKSKPQELEIIATGRGAPQKLLDIADLHSEMKPLHHPKATELLMKGIEIYTGAGKGKSTSALGKALQAIGRGINHPGSTRVLIMQWLKGGSGYTEDAAIAALRQSYPEVVDHQRCGRDAIVWRNSRQELDYVEAERGWEIAKVAIASGLYKTIILDELNPTVDLELLPVEPIVQALLRKPRDTEIIITGRCQNQPAYFDLASIHSEVYCHKHYANQGVELKRGVDF” the “soluble on expression in E. coli” value was “not soluble”. For “MRHTLPIAPQFYVTAPQSCPYLEGRLERKLFTALQGEHAQKLNDTLSKQGFRRSQNVLYRPSCAECSACLSARIRVADFEPTRTQRRVMKRNADLRRNATSPWATEDQYALFRRYLDDRHADGGMADMDIFEFAAMIEETPIRSRVIEYSRPGDTPSNRPLSAVCLTDIFDDGLSMVYSFYDPDLAGRSLGAYVILDHIEIAREAGLPYVYLGYWVPGSRKMGYKATYSALEIYKGGRWQAIGQPSDHRAELHPLSVDPIAEQVARISLPEARSGDRSRDLEHHHHHH”, the “soluble on expression in E. coli” value was “not soluble”. With “MISNQVLQNTLEGLKEISRTEFCIIDTEGKVLATTFADFSIQPGDIQAFVESQADSQLVKGFQYFKVCDDYQLEYILVAHGDDEDTYMVGKLAAFQIQNLIVAYKERFDKDSFIKNLLLDNLLLVDIYNRAKKLHIDADVRRVVMILELQQEKDHSSMESVKSFFGGKSKDFITAVDEKSIIIVKELEDGEGYAEMDKLAHAILDTLGLNQNEETHIAYGTIVNELKEVSRSYKEARMALDVGKIFFGEKDVIAYSSLGIGRLIYQLPIPLCKMFIKEIFENKSPDDFDEETLVTIDKFFENSLNVSETSRQLYIHRNTLVYRLDKLQKSTGLDLRVFEDAITFKIALMVVRYMKYMETLEY” the “soluble on expression in E. coli” value was “not soluble”. For “MASCQKSIFLGRLTTFTDSNISPTSLIFSSKMSSRTLRSSSSSNAISTKTQPKTEEAPLIPVTKGPVIRMTSNMADKAQNDHSMWPSTSKFESIWGNVLGERVNKSTIAAIREGMKIENKVTCGCRPGQDCSTNPACRCFQTASRLREHFGSDILTRGKPVKTVDTMYWDRPMFACSGSCGCKGQCNLNALQDICEDPAKKFKITRTDGKGFCVYSARVIKKGSPVLEFSGEITDYLAIKSNADIEQYSIMLYNNETKLCDFFSKEENLSSKYKKILWSAYRSKAWINPLNRGNCARFFSHGCKANMELGRVFQGGFSPADMKIVLFAKEIIKPGTELTFNYGPSYKEIFLGNKCLCEACKKEAVKKLENAVKRILKNSRDPSEPPSKKKSVKKLDGKENVR”, the “soluble on expression in E. coli” value was “not soluble”. For “MGSDKIHHHHHHMHQDTVRGKAFAMPLISPAYPAGPYRFRNREYLIITYRTDPQKLRDLVPEPLQVCEPMVKFEFIRMPDSTGFGDYTEGGQVIPVSFYGRRGSYTHCMFLDDHPPIAGGRELWGFPKKLASPTLRTETDTLVGTLDYGPVRVATGTMGYKHRAADLASVRASLAEPNFLLKIIPHVDGTPRICELVEYHLEDVHLRGAWTGPAALNLWSHALAPVAELPVLEVVSAVHLVADLTLALGKVVHDYLAKA”, the “soluble on expression in E. coli” value was “not soluble”. In the case of “MAHHHHHHMTNVVECTFKTPPETAKAPDNAIIWNSFQYCDEKGWYSLTNHDEIMLRPTAFSDGRIKFLPQLEKIPEEFESVLCGKYDAKAWGKDDCNIVIEGDKDVHISLPGLQEKINYNHRERFPTFLKNWKIIVGMLNEHITVIRINTETAIIVSINEKSNVTVKCVNFNNGFLCVNPHTNLAIAYGDFALSELKKCELVPNITHEGAEWGFFVHLFKWGHIIIPKDIEIKLPSPGLKLIGKKIDTVAIISLPPNIYIHVKIDGPKCIRKLEYGQDYSITAIKSSESDIDIYLLFDGQLIKYEFSFDTRLNKVGKGRSINYAKLKCTNKSKEVTSFVFQATANSKLLLDSNCPTDNMGHLLCNQTISVFDAETGEYLSHPQGLQLTEVFNTLSYPPEKE”, the “soluble on expression in E. coli” value was “not soluble”. With “LANKQIESRIIQFDVEFPSDEVAKQLSIEKTVPVYHIIRLRKVEGEPYVIEETYMPSNVISELNEDVLHGSVYRHITETLKLTIAGSHRKIRADKSSALDREYLECAPDDPVLEVEQVAFLNTGEPFEYSFARHRYDKFVFSSVHIRK” the “soluble on expression in E. coli” value was “not soluble”. With “MSEAAHSGAAPADLVELGRIASAYGVKGWVKVQPHSAQAEVLRTVSHWWLTRPAPQAARGVVASVPRAYQVLQARVHGGAVVAQLAGIDDRDQAEALRGCLVQAARSAFPAPADDEYYWVDLIGCALYSDADGESRLLGVVDEVFDNGAHAVLKVLRQQLQPGQPGPVPLVDPKGRPLEELVPFVRAHIRHVDLAARRIDSDWPLDYLEHHHHHH” the “soluble on expression in E. coli” value was “soluble”. In the case of “MGSDKIHHHHHHMKFIHTSDWHIGRQLHNQSLLDDQAFVLEQIIALADEHKVDAVIVAGDIYDRSIPPANAVALLDDVLNRLVHDLGLQVIMIAGNHDGHERLGFAAKQMAASGLHIIGPLSADIHPITLSSSSGDVVFYPLPYAEPATVRQVFECEAASHEAAMTLLLEQVRQHDSQGLPKVVISHCFLDGGSESESERPLSIGGADKISPTLFTEFDYVALGHLHGPQYKGAEHVRYSGSILKYSFSEQHQHKSVTLVELSAQTPIKIRLLPLTSIRDVRILEGELATLLVQGKTDIKREDYLMVRLLDKHAILDAMGKLRAVYPNVLHLERTGLMAGQQQVTLSRDHIKKGEMDMFRDFFSQVSGESLTQAQQAVMDELLTKLHNEERQA”, the “soluble on expression in E. coli” value was “not soluble”. In the case of GSLLKPARFMCLPCGIAFSSPSTLEAHQAYYCSHRI, the “soluble on expression in E. coli” value was “soluble”. In the case of “MASRVDETTVPSYYYYVDPETTYTYQQPNPLQDLISVYGLDDISRQVARTNLDGTKAVKLRKSYKNQIADLSGKFSTIPTRENGKGGQIAHILFQNNPDMMIQPPQQGQNMSEQQWREQLRNRDIALFQPPNFDWDLCSSVLSQFERSYPSEFANQNQGGAQAPFDIDDLAFDLDGTGKSQSGSNSGNNSKKRKNKSSGSSMATPTHSDSHEDMKRRRLE”, the “soluble on expression in E. coli” value was “soluble”. In the case of “MNCGPPPTLSFAAPMDITLTETRFKTGTTLKYTCLPGYVRSHSTQTLTCNSDGEWVYNTFCIYKRCRHPGELRNGQVEIKTDLSFGSQIEFSCSEGFFLIGSTTSRCEVQDRGVGWSHPLPQCEILEHHHHHH”, the “soluble on expression in E. coli” value was “soluble”.
